Data taken from publication PMC10786891, “Massively parallel profiling of RNA-targeting CRISPR-Cas13d”.
Numbering of substitutions follows the chain as printed. Numbers in names are those of the source.

B1: target 3 C1G,G3U (mixed)
RNA 1: CACCCGUGCAAAAUUGCAGGGGUCUAAAACGACCUGAAUAUUUCAGAUCAAA
RNA 2: GGGAAUGGAUCCACAUCUACGAAUUCGUUUUUGAUCUGAAAUAUUCAGUUGUGCAGAUCGGAAGAGCACACGU
B2: target 3 G3A (mixed)
RNA 1: B1 RNA 1
RNA 2: B1 RNA 2 with U49A, G51C
B3: target 3 C6G,U8G (mixed)
RNA 1: B1 RNA 1
RNA 2: B1 RNA 2 with U44G, C46G, U49G, G51C
B4: target 3 C1U,U21A (mixed)
RNA 1: B1 RNA 1
RNA 2: B1 RNA 2 with U31A, U49G, G51U
B5: target 3 insA 3' of 7,insA 3' of 7 (mixed)
RNA 1: B1 RNA 1
RNA 2: GGGAAUGGAUCCACAUCUACGAAUUCGUUUUUGAUCUGAAAUAUUAACAGGUCUGCAGAUCGGAAGAGCACACGU
B6: target 3 insA 3' of 2,insG 3' of 2 (mixed)
RNA 1: B1 RNA 1
RNA 2: B5 RNA 2 with A46C, C48G, A49G, G50U, G51A, U52G
B7: target 3 G3C,U7G (mixed)
RNA 1: B1 RNA 1
RNA 2: B1 RNA 2 with U45G, U49C, G51C
B8: target 3 insA 3' of 22,insG 3' of 8 (mixed)
RNA 1: B1 RNA 1
RNA 2: GGGAAUGGAUCCACAUCUACGAAUUCGUUUAUUGAUCUGAAAUAUGUCAGGUCUGCAGAUCGGAAGAGCACACGU
B9: target 3 C6G,A18G (mixed)
RNA 1: B1 RNA 1
RNA 2: B1 RNA 2 with A34G, C46G, U49G, G51C
B10: target 3 insC 3' of 7,insC 3' of 4 (mixed)
RNA 1: B1 RNA 1
RNA 2: B5 RNA 2 with A46C, A47C, C48A, A49G, G50C
B11: target 3 insA 3' of 22,insU 3' of 6 (mixed)
RNA 1: B1 RNA 1
RNA 2: B8 RNA 2 with G46U, U47C, C48U
B12: target 3 U7G,U8C (mixed)
RNA 1: B1 RNA 1
RNA 2: B1 RNA 2 with U44C, U45G, U49G, G51C
B13: target 3 insU 3' of 14,insG 3' of 5 (mixed)
RNA 1: B1 RNA 1
RNA 2: B5 RNA 2 with A39U, U42A, A43U, U44A, A46U, A47C, C48A, A49G
B14: target 3 G19U,U21A (mixed)
RNA 1: B1 RNA 1
RNA 2: B1 RNA 2 with U31A, G33U, U49G, G51C
B15: target 3 A5G,C6G (mixed)
RNA 1: B1 RNA 1
RNA 2: B1 RNA 2 with C46G, A47G, U49G, G51C
B16: target 3 C6U,U8C (mixed)
RNA 1: B1 RNA 1
RNA 2: B1 RNA 2 with U44C, C46U, U49G, G51C
B17: target 3 insU 3' of 13,insC 3' of 3 (mixed)
RNA 1: B1 RNA 1
RNA 2: B5 RNA 2 with A40U, U42A, A43U, U44A, A46U, A47C, C48A, A49G, G51C
B18: target 3 C1A,G3A (mixed)
RNA 1: B1 RNA 1
RNA 2: B1 RNA 2 with U49A, G51A
B19: target 3 del4 (mixed)
RNA 1: B1 RNA 1
RNA 2: GGGAAUGGAUCCACAUCUACGAAUUCGUUUUUGAUCUGAAAUAUUCAGUCUGCAGAUCGGAAGAGCACACGU
B20: target 3 G3U,A9G (mixed)
RNA 1: B1 RNA 1
RNA 2: B1 RNA 2 with A43G, G51C
B21: target 3 C6A,U22A (mixed)
RNA 1: B1 RNA 1
RNA 2: B1 RNA 2 with U30A, C46A, U49G, G51C
B22: target 3 G4U (mixed)
RNA 1: B1 RNA 1
RNA 2: B1 RNA 2 with G48U, U49G, G51C
B23: target 3 insA 3' of 10,insC 3' of 8 (mixed)
RNA 1: B1 RNA 1
RNA 2: B5 RNA 2 with U44A, A46C, A47U
B24: target 3 insG 3' of 2,insG 3' of 1 (mixed)
RNA 1: B1 RNA 1
RNA 2: B5 RNA 2 with A46C, C48G, A49G, G50U, U52C, C53G
B25: target 3 insC 3' of 22,insG 3' of 22 (mixed)
RNA 1: B1 RNA 1
RNA 2: GGGAAUGGAUCCACAUCUACGAAUUCGUUUCGUUGAUCUGAAAUAUUCAGGUCUGCAGAUCGGAAGAGCACACGU
B26: target 3 insU 3' of 5,insC 3' of 5 (mixed)
RNA 1: B1 RNA 1
RNA 2: B5 RNA 2 with A46C, C48U, A49C
B27: target 3 insC 3' of 8,insA 3' of 6 (mixed)
RNA 1: B1 RNA 1
RNA 2: B5 RNA 2 with U45C, A46U, A47C, C48A
B28: target 3 insA 3' of 10,insU 3' of 3 (mixed)
RNA 1: B1 RNA 1
RNA 2: B5 RNA 2 with U44A, A46U, A47C, C48A, A49G, G51U
B29: target 3 insG 3' of 8,insC 3' of 5 (mixed)
RNA 1: B1 RNA 1
RNA 2: B5 RNA 2 with U45G, A46U, A47C, C48A, A49C
B30: target 1 A16C,C21U (mixed)
RNA 1: CACCCGUGCAAAAAUGCAGGGGUCUAAAACUGAGCGGAUAACCUCUCUAUGG
RNA 2: GGGAAUGGAUCCACAUCUACGAAUUCGUACUAUAGCGAGGUUAUCCGCUCACCGAGAUCGGAAGAGCACACGU
B31: target 1 C6A,A20C (mixed)
RNA 1: B30 RNA 1
RNA 2: B30 RNA 2 with U31C, A32C, C36A, C46A
B32: target 1 insG 3' of 16,insG 3' of 9 (mixed)
RNA 1: B30 RNA 1
RNA 2: GGGAAUGGAUCCACAUCUACGAAUUCGUACCAUAGAGGAGGUUAGUCCGCUCACCGAGAUCGGAAGAGCACACGU
B33: target 1 A1G,U3C (mixed)
RNA 1: B30 RNA 1
RNA 2: B30 RNA 2 with U31C, C36A, U49C, A51G

Target: T1, EsCas13d, nuclease-dead (Eubacterium siraeum, UniProt B0MS50, R295A;H300A;R849A;H854A)
T1 sequence: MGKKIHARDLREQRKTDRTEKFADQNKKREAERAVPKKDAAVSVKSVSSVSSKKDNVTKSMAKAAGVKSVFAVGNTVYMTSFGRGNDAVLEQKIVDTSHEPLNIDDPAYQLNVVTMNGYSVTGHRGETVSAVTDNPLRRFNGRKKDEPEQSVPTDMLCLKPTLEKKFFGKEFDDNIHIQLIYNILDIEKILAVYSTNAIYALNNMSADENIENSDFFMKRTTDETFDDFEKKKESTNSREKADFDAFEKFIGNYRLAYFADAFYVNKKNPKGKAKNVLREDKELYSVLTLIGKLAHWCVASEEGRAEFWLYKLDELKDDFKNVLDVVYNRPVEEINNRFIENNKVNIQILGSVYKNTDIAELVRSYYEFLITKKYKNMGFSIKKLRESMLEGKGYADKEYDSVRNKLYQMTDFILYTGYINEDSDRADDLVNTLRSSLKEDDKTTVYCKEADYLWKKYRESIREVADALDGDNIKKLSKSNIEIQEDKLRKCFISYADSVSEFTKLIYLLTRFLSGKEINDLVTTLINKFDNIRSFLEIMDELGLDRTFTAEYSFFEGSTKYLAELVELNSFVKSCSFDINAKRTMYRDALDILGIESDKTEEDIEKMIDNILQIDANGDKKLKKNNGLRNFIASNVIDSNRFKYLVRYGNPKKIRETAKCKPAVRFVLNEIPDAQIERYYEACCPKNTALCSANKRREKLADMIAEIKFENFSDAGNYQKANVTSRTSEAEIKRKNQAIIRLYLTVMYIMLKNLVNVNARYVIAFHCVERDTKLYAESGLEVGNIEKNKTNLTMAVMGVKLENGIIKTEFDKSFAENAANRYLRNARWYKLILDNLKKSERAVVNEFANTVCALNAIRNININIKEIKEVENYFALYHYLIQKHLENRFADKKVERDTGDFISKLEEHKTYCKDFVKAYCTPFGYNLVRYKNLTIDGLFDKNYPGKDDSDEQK
Assay: crRNA (strand 1, pre-loaded); Mg2+; 40 mM Tris-HCl pH 7.5, 150 mM NaCl, 6 mM MgCl2, 1 mM DTT, 0.1% Tween-20, 0.2 mg/ml BSA; 25 C; 10 min per concentration, then washed
Settings: tags: His6-TwinStrep-SUMO cleaved; N-terminal SNAP kept (SNAP-Surface 488); label: 3' end held by stalled T7 RNA polymerase

Row | Binder | Kd
1 | B1 | 18.6 ± 3.35 nM
2 | B2 | 46 ± 11.5 nM
3 | B3 | 64 ± 8.5 nM
4 | B4 | 84 ± 26 nM
5 | B5 | 38 ± 5.5 nM
6 | B6 | 20.9 ± 2.15 nM
7 | B7 | 60 ± 7.5 nM
8 | B8 | ~90 nM
9 | B9 | 47 ± 9.5 nM
10 | B10 | 74.5 ± 15 nM
11 | B11 | 32.5 ± 5.5 nM
12 | B12 | 70 ± 11 nM
13 | B13 | 60.5 ± 19.5 nM
14 | B14 | 99.5 ± 14.5 nM
15 | B15 | 20.4 ± 1.75 nM
16 | B16 | 33.5 ± 2.95 nM
17 | B17 | 86.5 ± 19.5 nM

Row | Binder | Kd
18 | B18 | 37.5 ± 13.5 nM
19 | B19 | 23.6 ± 3 nM
20 | B20 | 67.5 ± 12 nM
21 | B21 | 59.5 ± 6.5 nM
22 | B22 | 4.25 ± 0.335 nM
23 | B23 | 102 ± 37 nM
24 | B24 | 25.6 ± 4.25 nM
25 | B25 | 65.5 ± 21.5 nM
26 | B26 | 6.59 ± 0.54 nM
27 | B27 | 71 ± 10.5 nM
28 | B28 | 67.5 ± 17.5 nM
29 | B29 | 39 ± 4 nM
30 | B30 | 8.5 ± 0.6 nM
31 | B31 | 38 ± 4 nM
32 | B32 | 31 ± 4 nM
33 | B33 | 35 ± 7 nM
